38 sequences from the supplement of paper PMC7877785 can be followed below.

The data set can be described thus: self-splicing fitness, log relative to wild type (ln ratio); higher = more splicing; Tetrahymena group I intron in knt gene, E. coli kanamycin selection, DiMSum; sequences stand for … in CUCUCU…GGAGGGAAAAGUUAUCAGGCAUGCACCUGGUAGCUAGUCUUUAAACCAAUAGAUUGCAUCGGUUUAAAAGGCAAGACCGUCAAAUUGCGGGAAAGGGGUCAACAGCCGUUCAGUACCAAGUCUCAGGGGAAACUUUGAGAUGGCCUUGCAAAGGGUAUGGUAAUAAGCUGACGGACAUGGUCCUAACCACGCAGCCAAGUCCUAAGUCAACAGAUCUUCUGUUGAUAUGGAUGCAGUUCACAGACUAAAUGUCGGUCGGGGAAGAUGUAUUCUUCUCAUAAGAUAUAGUCGGACCUCUCCUUAAUGGGAGCUAGCGGAUGAAGUGAUGCAACACUGGAGCCGCUGGGAACUAAUUUGUAUGCGAAAGUAUAUUGAUUAGUUUUGGAGUACUCGUGGUCG
A digest of the protocol:
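Fitness was computed with DiMSum as the error-weighted combination of replicate fold changes, kanamycin versus none, each normalised to wild type. The library randomised all eight intron nucleotides of the P1ex region, with the intron placed in the knt kanamycin-resistance gene on pET-22b(+) in E. coli BL21(DE3). Six replicate transformations were grown overnight at 37°C or 30°C on LB agar with or without 25 μg/mL kanamycin, plus 100 μg/mL carbenicillin, 50 μM IPTG and 0.2% rhamnose. Pooled colonies were amplicon-sequenced on an Illumina HiSeq 2500.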

± gives the uncertainty stated by the source.

On to ACCGAGCAAUAUUACGAAGC, for which the “self-splicing fitness (ln)” value was -3.47 ± 0.36 (30 °C) and -2.76 ± 0.36 (37 °C).

Regarding UGCUAGCAAUAUUACGUCCG, the “self-splicing fitness (ln)” value reads like this: (30 °C) -0.00657 ± 0.11; (37 °C) 0.18 ± 0.14.

Consider GACUAGCAAUAUUACGGAGG, for which, under “37 °C”, the “self-splicing fitness (ln)” value was -1.68 ± 0.4.

Turning to GCUCAGCAAUAUUACGAGAU, the “self-splicing fitness (ln)” value (30 °C) is -1.4 ± 0.077 and the “self-splicing fitness (ln)” value (37 °C) is -0.431 ± 0.078.

Consider UACGAGCAAUAUUACGUCUC, for which the “self-splicing fitness (ln)” value was -3.24 ± 0.29 (30 °C) and -2.56 ± 0.4 (37 °C).

For the sequence ACACAGCAAUAUUACGUGAC, the “self-splicing fitness (ln)” value was -4.1 ± 0.13 (30 °C) and -2.05 ± 0.11 (37 °C).

For the sequence UCCGAGCAAUAUUACGUUUG, the “self-splicing fitness (ln)” value is -3.31 ± 0.2 (30 °C) and -3.36 ± 0.25 (37 °C).

With CCUAAGCAAUAUUACGUGCA, the “self-splicing fitness (ln)” value was -3.34 ± 0.18 (30 °C) and -1.91 ± 0.17 (37 °C).

For AAAAAGCAAUAUUACGGUAG, the “self-splicing fitness (ln)” value reads like this: (30 °C) -3.38 ± 0.21; (37 °C) -1.45 ± 0.15.

CUCAAGCAAUAUUACGUCGC: the “self-splicing fitness (ln)” value was -4.2 ± 0.39 (30 °C) and -2.27 ± 0.33 (37 °C).

As to CGAAAGCAAUAUUACGACUA, the “self-splicing fitness (ln)” value runs as follows: (30 °C) -1.51 ± 0.14; (37 °C) -0.539 ± 0.13.

Regarding GGGCAGCAAUAUUACGAUUC, the “self-splicing fitness (ln)” value is, setting by setting: (30 °C) -0.524 ± 0.17; (37 °C) 0.155 ± 0.15.

AGUGAGCAAUAUUACGCCAU: the “self-splicing fitness (ln)” value was -2.58 ± 0.43 (30 °C) and -0.383 ± 0.35 (37 °C).

UAGGAGCAAUAUUACGUAUC: the “self-splicing fitness (ln)” value (30 °C) is -1.71 ± 0.2.

With AGCGAGCAAUAUUACGUAAC, the “self-splicing fitness (ln)” value is, setting by setting: (30 °C) -3.79 ± 0.29; (37 °C) -1.46 ± 0.24.

As to UUCUAGCAAUAUUACGUAUC, the “self-splicing fitness (ln)” value was -3.32 ± 0.27 (30 °C) and -2.05 ± 0.22 (37 °C).

As to CUGCAGCAAUAUUACGACAA, where the note is “37 °C”, the “self-splicing fitness (ln)” value was -0.88 ± 0.19.

For UCCAAGCAAUAUUACGUCAC, the “self-splicing fitness (ln)” value reads like this: (30 °C) -3.72 ± 0.39; (37 °C) -3.28 ± 0.43.

On to GGUAAGCAAUAUUACGGAGA, for which the “self-splicing fitness (ln)” value runs as follows: (30 °C) -3.47 ± 0.23; (37 °C) -2.8 ± 0.22.

Take UGUCAGCAAUAUUACGCUUU: the “self-splicing fitness (ln)” value was -1.13 ± 0.091 (30 °C) and 0.276 ± 0.09 (37 °C).

As to CGAGAGCAAUAUUACGAAGC, the “self-splicing fitness (ln)” value runs as follows: (30 °C) -3.7 ± 0.28; (37 °C) -2.02 ± 0.27.

In the case of UUAUAGCAAUAUUACGGAAA, the “self-splicing fitness (ln)” value is, setting by setting: (30 °C) -2.13 ± 0.22; (37 °C) -1.67 ± 0.23.

Take AACUAGCAAUAUUACGGUAC: the “self-splicing fitness (ln)” value is -3.39 ± 0.28 (30 °C) and -1.9 ± 0.17 (37 °C).

Consider CAGGAGCAAUAUUACGCAAA, for which, where the note is “30 °C”, the “self-splicing fitness (ln)” value was -4.2 ± 0.46.

CGAGAGCAAUAUUACGUCAU: the “self-splicing fitness (ln)” value was -3.96 ± 0.4 (30 °C) and -1.78 ± 0.33 (37 °C).

For the sequence CGAAAGCAAUAUUACGAGUU, the “self-splicing fitness (ln)” value runs as follows: (30 °C) -3.72 ± 0.44; (37 °C) -2.21 ± 0.23.

For the sequence AAGCAGCAAUAUUACGUAGC, the “self-splicing fitness (ln)” value is, setting by setting: (30 °C) -3.19 ± 0.15; (37 °C) -1.94 ± 0.16.

As for UCUCAGCAAUAUUACGCUGG, the “self-splicing fitness (ln)” value by setting is: (30 °C) -3.25 ± 0.2; (37 °C) -2.67 ± 0.2.

As to AUUUAGCAAUAUUACGUCUU, the “self-splicing fitness (ln)” value (30 °C) was -0.374 ± 0.12 and the “self-splicing fitness (ln)” value (37 °C) worked out at 0.156 ± 0.17.

On to GUAGAGCAAUAUUACGUUCG, for which the “self-splicing fitness (ln)” value reads like this: (30 °C) -1.08 ± 0.065; (37 °C) -0.139 ± 0.13.

For the sequence CUUCAGCAAUAUUACGUAGG, the “self-splicing fitness (ln)” value is -1.49 ± 0.1 (30 °C) and -0.863 ± 0.12 (37 °C).

Regarding GAGUAGCAAUAUUACGAUCC, the “self-splicing fitness (ln)” value was -1.55 ± 0.092 (30 °C) and -0.509 ± 0.11 (37 °C).

For GUUCAGCAAUAUUACGUUGU, the “self-splicing fitness (ln)” value runs as follows: (30 °C) -1.68 ± 0.096; (37 °C) -0.287 ± 0.11.

For the sequence UAGAAGCAAUAUUACGAAGA, the “self-splicing fitness (ln)” value was -1.77 ± 0.18 (30 °C) and -0.969 ± 0.17 (37 °C).

Turning to CGGAAGCAAUAUUACGACCG, the “self-splicing fitness (ln)” value is, setting by setting: (30 °C) -3.04 ± 0.35; (37 °C) -2.26 ± 0.45.

Regarding UCUAAGCAAUAUUACGCAGU, the “self-splicing fitness (ln)” value is, setting by setting: (30 °C) -1.86 ± 0.16; (37 °C) -1.24 ± 0.15.

AACUAGCAAUAUUACGGUGG: the “self-splicing fitness (ln)” value reads like this: (30 °C) -2.14 ± 0.079; (37 °C) -0.926 ± 0.086.

For UAACAGCAAUAUUACGAGGG, the “self-splicing fitness (ln)” value (30 °C) is -3.58 ± 0.2 and the “self-splicing fitness (ln)” value (37 °C) is -3.12 ± 0.22.
